Laboratory results published in the supplement of paper PMC9112550, “Optimization of the antimicrobial peptide Bac7 by deep mutational scanning” (BMC Biology, 2022).

What follows are sequences tested on Escherichia coli TOP10 (assay: shrunken log2 fold change of peptide-encoding DNA abundance (4.5 h post-induction vs induction); higher = less antimicrobial activity (less host growth inhibition)). Settings: time post-induction: 4.5 h; library: site-saturation at positions 5, 18, 19, 20.
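Also: peptides expressed intracellularly from a pBAD plasmid library in pooled LB shake-flask culture, induced with 0.3% L-arabinose, DNA abundance read by NGS, three biological replicates, DESeq2 with apeglm shrinkage.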

RRIRERPPRLPRPRPRPTKMPRP and RRIRPRPPRLPRPRPRPDETPRP are within 0.2 log units of each other in “shrunken log2 fold change” value: -0.22 for the first, -0.088 for the second.

RRIRQRPPRLPRPRPRPHEPPRP and RRIRFRPPRLPRPRPRPNPDPRP are within 0.2 log units of each other in “shrunken log2 fold change” value: -0.00369 for the first, -0.0966 for the second.

RRIRLRPPRLPRPRPRPREIPRP and RRIRSRPPRLPRPRPRPKQLPRP are within 0.2 log units of each other in “shrunken log2 fold change” value: 0.0725 for the first, 0.0372 for the second.

RRIRGRPPRLPRPRPRPERYPRP and RRIRRRPPRLPRPRPRPFHTPRP are within 0.2 log units of each other in “shrunken log2 fold change” value: -0.107 for the first, -0.0624 for the second.

Compared with RRIRARPPRLPRPRPRPCYCPRP, RRIRERPPRLPRPRPRPWYVPRP is lower in “shrunken log2 fold change” value: -0.0765 for the first, -0.612 for the second.

RRIRDRPPRLPRPRPRPFMHPRP and RRIRIRPPRLPRPRPRPVVIPRP are within 0.2 log units of each other in “shrunken log2 fold change” value: -0.148 for the first, -0.307 for the second.

Compared with RRIRPRPPRLPRPRPRPHSTPRP, RRIRPRPPRLPRPRPRPPITPRP is higher in “shrunken log2 fold change” value: -0.583 for the first, -0.0969 for the second.

First: RRIRCRPPRLPRPRPRPQKFPRP
Second: RRIRQRPPRLPRPRPRPAWCPRP
The “shrunken log2 fold change” value of the first is lower: -0.638 for the first, 0.0518 for the second.

RRIRGRPPRLPRPRPRPNYCPRP and RRIRCRPPRLPRPRPRPYLQPRP are within 0.2 log units of each other in “shrunken log2 fold change” value: 0.00136 for the first, -0.144 for the second.

Going from RRIRERPPRLPRPRPRPETKPRP to RRIRYRPPRLPRPRPRPKFEPRP, the “shrunken log2 fold change” value rises from -0.231 to -0.0286.

RRIRDRPPRLPRPRPRPRVTPRP and RRIRIRPPRLPRPRPRPLWPPRP are within 0.2 log units of each other in “shrunken log2 fold change” value: -0.0173 for the first, -0.0906 for the second.

Going from RRIRPRPPRLPRPRPRPCYLPRP to RRIRSRPPRLPRPRPRPIAYPRP, the “shrunken log2 fold change” value rises from -0.958 to -0.0673.

First: RRIRCRPPRLPRPRPRPGSLPRP
Second: RRIRTRPPRLPRPRPRPAWAPRP
The “shrunken log2 fold change” value of the first is lower: 0.0481 for the first, 1.53 for the second.

Compared with RRIRQRPPRLPRPRPRPIECPRP, RRIRHRPPRLPRPRPRPKINPRP is lower in “shrunken log2 fold change” value: -0.0217 for the first, -0.817 for the second.

RRIRGRPPRLPRPRPRPNTDPRP and RRIRCRPPRLPRPRPRPALCPRP are within 0.2 log units of each other in “shrunken log2 fold change” value: 0.197 for the first, 0.185 for the second.

RRIRRRPPRLPRPRPRPFDDPRP and RRIRERPPRLPRPRPRPVKCPRP are within 0.2 log units of each other in “shrunken log2 fold change” value: -0.236 for the first, -0.069 for the second.

Compared with RRIRPRPPRLPRPRPRPLETPRP, RRIRMRPPRLPRPRPRPGGAPRP is higher in “shrunken log2 fold change” value: 0.151 for the first, 1.17 for the second.

Compared with RRIRHRPPRLPRPRPRPQRRPRP, RRIRWRPPRLPRPRPRPNYTPRP is lower in “shrunken log2 fold change” value: 0.0777 for the first, -0.279 for the second.

RRIRDRPPRLPRPRPRPCEEPRP and RRIRARPPRLPRPRPRPYEAPRP are within 0.2 log units of each other in “shrunken log2 fold change” value: -0.187 for the first, -0.222 for the second.

First: RRIRIRPPRLPRPRPRPLICPRP
Second: RRIRHRPPRLPRPRPRPWAAPRP
The “shrunken log2 fold change” value of the first is lower: -0.738 for the first, -0.0958 for the second.

First: RRIRHRPPRLPRPRPRPTAYPRP
Second: RRIRHRPPRLPRPRPRPHKHPRP
The “shrunken log2 fold change” value of the first is higher: -0.23 for the first, -0.546 for the second.

RRIRQRPPRLPRPRPRPQAGPRP and RRIRLRPPRLPRPRPRPNFSPRP are within 0.2 log units of each other in “shrunken log2 fold change” value: -0.158 for the first, -0.00932 for the second.

Going from RRIRWRPPRLPRPRPRPRLPPRP to RRIRHRPPRLPRPRPRPYTWPRP, the “shrunken log2 fold change” value falls from 0.471 to -1.02.

Going from RRIRQRPPRLPRPRPRPSIHPRP to RRIRPRPPRLPRPRPRPWSGPRP, the “shrunken log2 fold change” value rises from -0.451 to 0.000793.

RRIRQRPPRLPRPRPRPHVLPRP and RRIRPRPPRLPRPRPRPFQWPRP are within 0.2 log units of each other in “shrunken log2 fold change” value: 0.0625 for the first, -0.0697 for the second.

First: RRIRKRPPRLPRPRPRPMWPPRP
Second: RRIRMRPPRLPRPRPRPFIHPRP
The “shrunken log2 fold change” value of the first is higher: -0.00167 for the first, -0.57 for the second.

First: RRIRHRPPRLPRPRPRPTWLPRP
Second: RRIRVRPPRLPRPRPRPFRIPRP
The “shrunken log2 fold change” value of the first is higher: 0.326 for the first, -0.26 for the second.

Compared with RRIRQRPPRLPRPRPRPFCVPRP, RRIRKRPPRLPRPRPRPDETPRP is higher in “shrunken log2 fold change” value: -0.0258 for the first, 3.04 for the second.

RRIRNRPPRLPRPRPRPNIGPRP and RRIRFRPPRLPRPRPRPKRRPRP are within 0.2 log units of each other in “shrunken log2 fold change” value: -0.00968 for the first, 0.0555 for the second.

RRIRRRPPRLPRPRPRPMTVPRP and RRIRPRPPRLPRPRPRPVVVPRP are within 0.2 log units of each other in “shrunken log2 fold change” value: -0.238 for the first, -0.0997 for the second.

Going from RRIRLRPPRLPRPRPRPCCHPRP to RRIRKRPPRLPRPRPRPWGEPRP, the “shrunken log2 fold change” value rises from -0.215 to 0.539.

RRIRQRPPRLPRPRPRPVWDPRP and RRIRQRPPRLPRPRPRPAVGPRP are within 0.2 log units of each other in “shrunken log2 fold change” value: -0.104 for the first, 0.0738 for the second.

RRIRQRPPRLPRPRPRPALGPRP and RRIRGRPPRLPRPRPRPSCVPRP are within 0.2 log units of each other in “shrunken log2 fold change” value: 0.563 for the first, 0.499 for the second.

Compared with RRIRWRPPRLPRPRPRPGMDPRP, RRIRDRPPRLPRPRPRPGRNPRP is lower in “shrunken log2 fold change” value: 0.317 for the first, -0.495 for the second.

RRIRDRPPRLPRPRPRPNFMPRP and RRIRWRPPRLPRPRPRPIILPRP are within 0.2 log units of each other in “shrunken log2 fold change” value: -0.316 for the first, -0.283 for the second.

First: RRIRHRPPRLPRPRPRPGWHPRP
Second: RRIRDRPPRLPRPRPRPMGEPRP
The “shrunken log2 fold change” value of the first is higher: 0.208 for the first, -6.53e-05 for the second.

First: RRIRTRPPRLPRPRPRPDCGPRP
Second: RRIRVRPPRLPRPRPRPFHEPRP
The “shrunken log2 fold change” value of the first is higher: 0.759 for the first, 0.324 for the second.

RRIRWRPPRLPRPRPRPGDEPRP was tested, and the “shrunken log2 fold change” value was 0.0372.
